Read-outs that look alike come from different tables or passages of the source. No end group written: not given here. *: point of attachment. Oxazole(5-CO) = O=C(c1cnco1)*; Crotonyl(E) = C/C=C/C(=O)*; 2Furoyl = O=C(c1ccco1)*; Butyryl = CCCC(=O)*
T1: AF9 YEATS domain (human, UniProt P42568 1-138)
T1 sequence (looked up): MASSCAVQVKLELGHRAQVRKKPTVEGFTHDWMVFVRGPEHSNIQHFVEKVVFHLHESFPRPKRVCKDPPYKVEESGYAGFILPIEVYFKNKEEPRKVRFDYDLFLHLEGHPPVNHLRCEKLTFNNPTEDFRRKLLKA

T2: 6x His-tagged ENL YEATS domain (human, UniProt Q03111 1-138)
T2 sequence (looked up): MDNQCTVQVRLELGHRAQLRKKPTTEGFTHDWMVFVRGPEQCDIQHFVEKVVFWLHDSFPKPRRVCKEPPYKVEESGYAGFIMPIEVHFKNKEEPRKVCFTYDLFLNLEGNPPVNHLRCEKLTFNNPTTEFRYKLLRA

T3: NanoLuc luciferase (NLuc)-ENL YEATS fusion protein (human, UniProt Q03111 1-148)
T3 sequence (looked up): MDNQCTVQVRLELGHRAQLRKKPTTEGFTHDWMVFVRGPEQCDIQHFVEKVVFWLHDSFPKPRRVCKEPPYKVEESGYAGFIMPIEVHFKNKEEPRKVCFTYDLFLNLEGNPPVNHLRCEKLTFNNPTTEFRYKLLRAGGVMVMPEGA


Tests used:
AF9 YEATS domain [1] = molecular target: T1, AF9 YEATS domain; assay: AlphaScreen or HTRF
[2] = molecular target: T2, 6x His-tagged ENL YEATS domain; assay: BLI
AF9 YEATS domain [3] = molecular target: T1, AF9 YEATS domain; assay: BLI
[4] = molecular target: T2, 6x His-tagged ENL YEATS domain; assay: AlphaScreen or HTRF
[5] = molecular target: T3, NanoLuc luciferase (NLuc)-ENL YEATS …; assay: FRET or BRET
[6] = molecular target: T3, NanoLuc luciferase (NLuc)-ENL YEATS …; assay: FRET or BRET; remark: listed apart in the source
[7] = molecular target: T3, NanoLuc luciferase (NLuc)-ENL YEATS …; assay: FRET or BRET; remark: listed apart in the source

| Binder | fold lower potency (IC50) toward AF9 YEATS than toward ENL YEATS (AF9 YEATS domain [1]) [fold] | Kd [2] [nM] | koff [2] [s⁻¹] | kon [2] [M⁻¹ s⁻¹] | Kd (AF9 YEATS domain [3]) [nM] | IC50 [4] [nM] | IC50 [5] [nM] | IC50 [6] [nM] | fold selectivity for ENL YEATS over AF9 (AF9 YEATS domain [3]) [fold] | IC50 [7] [nM] |
| --- | --- | --- | --- | --- | --- | --- | --- | --- | --- | --- |
| YDVYCYK(Butyryl)-NH2 [ENL-S1] | 4 | 36.3 | 0.00226 | 62300 | 205 | 63 |  |  |  |  |
| WWIIEK(Butyryl)G-NH2 [ENL-S2] |  | 881 | 0.00554 | 6290 |  | 1220 |  |  |  |  |
| YDVYCYK(2Furoyl)-NH2 [ENL-S1f] | 7.7 | 10.3 |  |  | 144 | 22 |  |  |  |  |
| YDVYCYK(Crotonyl(E))-NH2 [ENL-S1c] | 18 | 16.2 |  |  | 147 | 20 |  |  |  |  |
| YDVYCYK(Oxazole(5-CO))-NH2 [ENL-S1o] | 23 | 2 |  |  | 55.1 | 10 |  |  |  |  |
| Ac-VYCYK(2Furoyl)-NH2 [tENL-S1f] |  |  |  |  |  |  | 4100 ± 1100 | 4200 ± 1100 | 12 | 6400 ± 1600 |

Source: publication doi:10.1101/2023.01.08.523168 (bioRxiv, 2023)
